The results in this text go back to publication PMC4386032.

In the test the target is F-actin (source not stated for this experiment: rabbit muscle or yeast) (not stated (rabbit muscle or yeast actin purified)) (UniProt P68135).

Sequence of Vps1 (yeast dynamin), wild type, recombinant His tag fusion (P21576 whole entry, the tested form may be a part): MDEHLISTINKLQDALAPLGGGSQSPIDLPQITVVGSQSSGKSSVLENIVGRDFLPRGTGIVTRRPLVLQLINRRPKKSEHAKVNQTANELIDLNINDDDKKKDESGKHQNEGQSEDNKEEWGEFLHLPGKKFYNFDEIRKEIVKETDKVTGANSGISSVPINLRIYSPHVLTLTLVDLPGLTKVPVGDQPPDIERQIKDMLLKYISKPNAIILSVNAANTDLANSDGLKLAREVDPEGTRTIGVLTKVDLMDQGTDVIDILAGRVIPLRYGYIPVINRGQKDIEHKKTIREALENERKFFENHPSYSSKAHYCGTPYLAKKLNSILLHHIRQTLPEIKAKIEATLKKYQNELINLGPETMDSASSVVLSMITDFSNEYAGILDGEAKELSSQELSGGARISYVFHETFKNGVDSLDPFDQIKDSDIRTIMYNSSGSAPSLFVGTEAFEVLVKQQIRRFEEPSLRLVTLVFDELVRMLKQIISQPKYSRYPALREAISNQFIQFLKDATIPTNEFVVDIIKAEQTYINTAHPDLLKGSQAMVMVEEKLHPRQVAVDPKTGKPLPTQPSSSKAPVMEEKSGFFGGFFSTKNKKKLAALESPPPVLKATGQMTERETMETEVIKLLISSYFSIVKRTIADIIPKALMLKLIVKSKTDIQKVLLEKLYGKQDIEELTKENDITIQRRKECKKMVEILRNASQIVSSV

For the substance “Vps1 (yeast dynamin), wild type, recombinant His tag fusion (from UniProt P21576 1-704) (natural protein)”, the EM: proportion of Vps1 structures that are double rings after incubation with actin stood at 55%, the EM: proportion of actin in bundles of three or more filaments in the presence of Vps1 was 58% and the EM: proportion of actin in bundles of two or more filaments in the presence of Vps1 (23% without) was greater than 80%.

As to “Vps1 RR457,458EE, recombinant His tag fusion (from UniProt P21576 1-704) (natural protein)”, the EM: proportion of actin filaments in bundles of three or more in the presence of Vps1 RR-EE came to 8%.
